Assay: soluble fraction after stress (log2 fold change); higher = more stays soluble; pooled small domains, quantitative proteomics
Details: stress: pH 4
How it was run: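 Values are log2 fold changes, and higher ones mean more of the domain stayed soluble. Each fold change reflects the soluble amount of a domain after acid stress and is taken as a measure of aggregation propensity. The stress was pH 4, applied to pooled custom libraries of small protein domains analysed by high-throughput quantitative proteomics.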

Row | Sequence | soluble fraction (log2)
1 | HMQSANQLIKLSRKRKGLTQQELADQAGVSLRTVQRIEKGTEEISGFSLKQISQILEIPLEQLIM | -0.652
2 | HMQSLDGPSRAAIVLMAIGPDVAGELIKSFSPAEAQKVSSLLATVRSLDREVMIEVLDSFKNITEH | -0.5
3 | HMQSLPFSFAKRHGVLLKSINHLHGEAVYRIGANPLSLSEVQRYAGVPLKLSSITVEKFDRLLQETYEHD | -0.436
4 | HMQSLSDQVFFYLKERIINNEMVPGSIISIEKLTSEFGISNTPVREAIVRLAGLDLVTIHRNKNITVS | -0.707
5 | HMQSMSADDWSEKARVLMSAGIIVMGQEAKEKILNLKSLVPLIEAASASNVSMIDSRTFDELLMIIP | -2
6 | HMQSREISYSEFVTAVEAGDVRNVTLDGEQVRFRRADGSDYVTIRPEDAEVTKLLMANDIPVRAEP | -0.198
7 | HMQSRRTPASLVERVRQLNGQYQDKEIAELLNREGIKTAHGNEFNAKRIEMIRRHNGISKHSAQ | -0.0944
8 | HMQSSTAISFNQFQKSWLSNNIKSFQLGEDKMTVRGSLKNGTQYETIVPSERLFQFIGQHPKDGQVQEMY | ≥ 0.43
9 | HMQSTEQVSVTVTIPPGGELRIDSDTFRVLLNGENVLDKQSGDWLMLSRDLLYLDIESAIGNGLSGNLIYT | -0.143
10 | HMQSVEELLDAIGDERLLHILLEADRKTLQIVVLKMMGYAPKEIGSHIGMPEQTVYTKLRRLREKIKKI | -1.07
11 | HMQSYHVGDKVTIKNSASHWATGQSIYNGVKGHTYKIIQTNGHKLLLDQVISWINDGDVYKAGS | 0.0872
12 | HMQSYSTIIGVIELRLSGIGYRTTKARYGIGNSTVTLIMNRFKETGFTLDDLKTMEPTKVEALFYPP | -0.229
13 | HMQSYSYYDFQKALQNKTVESVIIEPDKTVPTGTLQIQLKGDTKEELNVSDVTEVEELLQSYDVDYKLRSV | 0.0751
14 | HMQTASVRFADGQLEVKQKGLQRVSVYSLNGMTVANKAVQGQDYVTISLPRAAYIVKITTQNGSFTKVI | 0.218
15 | HMQTGRREALEAQLRETGGEAMLARLREIDPEAAARLHPADEKRVIRALEVYEETGKTITQHNLETKAVPP | -0.0698
16 | HMQTKEVDYGTFMSMIDEKNIGTVEIGDSQIVFTDKDNKNLYETGVMNDPDLAQRLHDAGATFSS | 0.0149
17 | HMQTLQTTSLRVSENQLFILDQQALPQEKRWLAADNVALLVDHIHTLRVRGAPLIGLSASLLLALLAGRLT | -0.764
18 | HMQTMNKTNISNFEKYLNSGDVSEVIVVRNKSSVRVTLTPEALRSSEHQAVVGKNILGQENIKGPHYQFEV | 0.138
19 | HMQTPPGRYRHYKGGLYEVIATARHSETLEPMTVYRALYGEQGLWVRPAAMFAEDITLEGVRQPRFARI | -1.27
20 | HMQTRIDISDAVLQWVVRKTQFAALPPKAAAHLTKWVRGEKKPTFNQLEEVSKATGIPLGYFFLQQPPHE | -0.561
21 | HMQTTEDMEINAKVDEYLREMYLWNDEYKTLNLDHNKGYEDFFYDALGSMTTNTLDKKTYVGSDGKTYYNL | -0.933
22 | HMQTYTYYIAKNDISIGQKITPDMLIEKQVNLGDSKDRYLSREQLETGKYIAVRQIPAGELISSASANE | 0.0749
23 | HMQVAPQVERLLRVMGNETLSLSDIMGRMGLSDKKNFRESYLVPALRSAVIEMTIPDKPNSSLQKYRRIHE | -0.125
24 | HMQVEEKNKKIELYIEGKIKELESNLMYVPNENKKKLLMAFMNRNEDIEIIKTKIDTIFNKSVAAYKENM | -0.894
25 | HMQVIDNHWRPSRDALDILLRDGISEHFIEDAIPEFILYWRERGTQDSNWNSRFLQHIRLQWARYTNAV | -0.936

Row | Sequence | soluble fraction (log2)
26 | HMQVPDLYRTLGVGRDATTEAIEAAYVGWQARLSAGEPISTQEWERLRYAHEVLSNPQRRSLYDSLVAET | 0.0568
27 | HMQVPVNVSMEILDWVIAHIKIDALPNQIREYLNLWVNGEKEPTFNQVEKVSKATGIPLGYFFLQTPPIED | -1.33
28 | HMQVQHVWNRLKRPNGDVLYEINRDHPLVSASLDAAADRGAIETLLRQIEQSLPVNQLYVDMNADEHFE | -0.812
29 | HMQVSDAAQLAEVVKTVLAENPAAVGDYRKGKKAAIGFLLGQVMRHMRGTANPAVARQLLEQALEDE | 0.231
30 | HMQVSDLSAIDSLIDKVLSEQQAAVQDFRSGQGKAMGFLIGKVMQASDGKANPKVIRELMGKKLA | -0.0313
31 | HMQVSIGERVKLARMSAGLNQRQLGKEMGMSAMAISKYETGEVVPNSRVLIQLSQTLHVPLDFFFRS | 0.0627
32 | HMQVTDADFDQIRLAVLSQLKQNSLTVAELLKIIPFKEQKVMPVIRFLIDNRVLEHGTDMKLTVGNSVK | -0.34
33 | HMQVTIGADLAEHAARLDVQISDVVKLIKSGVSEGEIKVGLTKLETRLAHPELALVENKLAYLKALIAES | -0.79
34 | HMQYALEDDLDSAIKLLTGKGLSGTVAWGWSDTYINVGKKSYSMEFIAKMLLRLGEGSRVTIQVDPA | -1.28
35 | HMQYIINFEYSGMLLREYLRGVLGLSHGTLTALKKDPLGILLNGEHATVRAVLHAGDRLTLALE | -1.13
36 | HMQYKVMDVTVDGNPVIEFQNLNSKIKWIENNPDAIIQNIKTSSFEADQKRIVGTSRGPFWIVIKPDF | -0.299
37 | HMQYRQRRGLERMELILDAATRVVAEVGYERTTTNAIATRAGISPGSLYQYFSSKEDIASALWERYAE | -0.251
38 | HMRAGEAVTGQVIGVKEDEIILSIAGSKSEGIITRSEFTNEPNVDLTTKVSVGDELEVKVLKVNDGEGMAS | -0.244
39 | HMRAKPLILLDGREISAEELFSLDKNSIKSIEVLKDETALAQYGEKAKNGVVLVVTKSAAAS | 0.0982
40 | HMRALPAGQADLLKWIDGVTPRSVEELELLSGLEPGRLSELLMELELAGIVRAVAGDSYIKISKS | -0.534
41 | HMRAPETEITYTEFKTALRAGQIETATVGIEQISGKLTDGDLYRTVRVDDPDLLKDLEANHVNAAGRV | -0.0386
42 | HMRASQGRNELILSLLRGHELSILELLEGLEKQGVRVARPTLTKDLNELVSRGSVEATAPPRSKNRTYRIP | 0.302
43 | HMRDFLMDSTKNKLSKDQVQLSRIFLWFGNDFGSKAERLEFISRYSGMDFNQPKIDYLTYDWSLNQ | -0.207
44 | HMRDLITYVVQINGKLRGKLEVAPDTDPEELKALALEVENVKRSLEGWVVKKVIVVPGKMVSIAAG | -0.105
45 | HMRDLLPHFQRELQFLQTHRNEFAAAYPELGGRLATASDLLDDPHVERMVQSFALLAARVHKRLDDDF | -0.143
46 | HMRDLTARQQQILALIRQHIADTGFPPTRAEIAAQLGFRSPNAAEEHLKALARKGVIELASGASRGIRLK | 0.283
47 | HMRDPFDALSARERAVASLVQRGLRNKEVASELGLTEGTVKVHLHKVFDKLGIRGRTELILLAQER | -0.397
48 | HMRDQAIDIYKTVHSVAEPYKEVFLLRVLGELSFKEISHIFGKSESWAKVTFFRAKIKVVEKREES | -1.04
49 | HMRDQQHNIYLLEKAKRLYEEFLGDNRHIIAAEMARFEAVLETQDAIIIQRAQQQFSEFLNRFDG | -1.2
50 | HMRDRYEYLKELRLYLSPLGRTEEDRVIEYYAELIGDKIESGIPENGVLSQLGTPRELADKILAETQEY | -0.384
